This is an account of results in US20240010697A1 (CYTIMM THERAPEUTICS, published 2024).

Residue numbers refer to the chain shown, from its start. Names and notes keep the numbering of the source.

In experiment [1] the target is T1, IL-2Rα in a human Fc fusion protein format (ACROBiosystems) (human, UniProt P01589 22-213, limits assumed).
T1 construct: Bought reagent; also called CD25; not shown: human Fc (captured by anti-human IgG Fc)
T1 sequence (looked up): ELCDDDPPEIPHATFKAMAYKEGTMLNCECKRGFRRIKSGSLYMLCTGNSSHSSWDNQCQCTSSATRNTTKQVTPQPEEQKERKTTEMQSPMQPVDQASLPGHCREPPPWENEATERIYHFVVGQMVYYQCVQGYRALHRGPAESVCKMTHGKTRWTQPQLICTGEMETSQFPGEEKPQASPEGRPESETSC
Nature of the experiment: biosensor kinetics, receptor as ligand on the sensor, IL-2 protein as sample, 1:1 Binding model (legend: Octet QKe; table heads give RU). On the technique in general: Biolayer interferometry detects binding as a change in optical thickness at a sensor tip.

For experiment [2], the target named is T2, IL-2Rβγ-human Fc fusion protein construct (ACRO Biosystems) (human, UniProt P14784 27-239; P31785 23-262, limits assumed).
T2 construct: not shown: human Fc
T2 sequence (looked up) 1: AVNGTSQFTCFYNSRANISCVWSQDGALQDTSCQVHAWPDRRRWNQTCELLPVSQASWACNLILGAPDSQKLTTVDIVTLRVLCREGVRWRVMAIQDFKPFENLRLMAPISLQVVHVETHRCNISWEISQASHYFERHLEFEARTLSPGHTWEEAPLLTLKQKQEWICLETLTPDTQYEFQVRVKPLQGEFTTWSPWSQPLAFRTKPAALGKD
T2 sequence (looked up) 2: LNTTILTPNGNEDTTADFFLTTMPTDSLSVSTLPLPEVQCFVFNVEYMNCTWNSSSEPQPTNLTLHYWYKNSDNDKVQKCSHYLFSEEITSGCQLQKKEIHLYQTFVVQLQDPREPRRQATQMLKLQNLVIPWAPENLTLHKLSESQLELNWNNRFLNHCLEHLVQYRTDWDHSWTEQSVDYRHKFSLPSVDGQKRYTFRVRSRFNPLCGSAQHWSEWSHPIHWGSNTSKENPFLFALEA
The experiment is described as above.

Another experiment concerns the target T3, IL2R αβγ.
T3 construct: Cell-free IL-2Rαβγ on a biosensor; not the cell-borne receptors m18 and m19; also called IL-2Rαβγ (ligand on the sensor)
The experiment is described as above.

For experiment [3], the target named is T1, IL-2Rα in a human Fc fusion protein …. Nature of the experiment: ELISA; EC50 on IL-2Rα over EC50 on IL-2Rβγ (reference). The protocol: (§1) IL-2Rα and IL-2R βγ-human Fc fusion protein constructs (ACRO Biosystems) were each expressed and immobilized by anti-Human IgG Fc (abeam), which were then captured on the surface of wells of a microplate. […] Binding was detected using anti-His or anti-PEG antibody conjugated to horse radish peroxidase (HRP) (Genscript), which was incubated with substrate. The quantification of binding was measured with an absorbance-based microplate reader. Data were analyzed by Graphpas prism9 Software.
(In general: ELISA stands for enzyme-linked immunosorbent assay.)

Experiment [4] has the same target. Nature of the experiment: ELISA, receptor-Fc captured by anti-human IgG Fc, anti-His-HRP detection. The protocol: as §1
Experiment [5] addresses T2, IL-2Rβγ-human Fc fusion protein …. The experiment is described as above. How it is done: as §1
Experiment [6] addresses T1, IL-2Rα in a human Fc fusion protein …. Kind of experiment: BLI (Octet QKe), IL-2Rα-Fc captured on AHC sensors, 1:1 fit. The source says:
(§2) IL-2Rα or IL-2Rβ in a human Fc fusion protein format (ACROBiosystems) were captured on anti-human IgG Fc capture (AHC) sensors. […] Dissociation was detected following transfer of sensors into wells containing buffer alone. Data were collected and analyzed by the Octet User Software. For analysis of the kinetics constants, a 1:1 curve fitting model was used.

Experiment [7] has the same target. Nature of the experiment: BLI (Octet QKe), IL-2Rα-Fc captured on AHC sensors, 1:1 fit; row printed a second time.
From the text: as §2

For a further experiment, the target named is T4, IL2R β.
T4 construct: also called IL-2Rβ in a human Fc fusion protein format (ACROBiosystems); CD122; not shown: The human IgG Fc carrier and any linker of the ACROBiosystems fusion
T4 chain: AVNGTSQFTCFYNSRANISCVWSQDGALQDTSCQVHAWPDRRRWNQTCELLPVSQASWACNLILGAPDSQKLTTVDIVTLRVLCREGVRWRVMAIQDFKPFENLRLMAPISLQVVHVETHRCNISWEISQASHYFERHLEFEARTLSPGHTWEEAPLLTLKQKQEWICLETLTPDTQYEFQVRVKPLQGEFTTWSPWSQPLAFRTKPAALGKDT
Kind of experiment: biosensor sensorgrams, receptor on the sensor, IL-2 protein in solution (legend: Octet QKe); axes without units, concentrations not given.
From the text: as §2

The target in experiment [8] is T1, IL-2Rα in a human Fc fusion protein …. Kind of experiment: ELISA; EC50 of rhIL2 (reference) over EC50 of ACT5211 on IL-2Rα. How it is done:
as §1

Experiment [9] has the same target. Nature of the experiment: ELISA; α/βγ EC50 ratio of rhIL2 (reference) over that of ACT5211. How it is done: as §1
Experiment [10] shares this target. Nature of the experiment: ELISA, receptor-Fc captured by anti-human IgG Fc on the plate, detection with anti-His or anti-PEG antibody-HRP; unit from the axis (Table 4 of the text prints 5.1). How it is done:
as §1

In experiment [11] the target is T2, IL-2Rβγ-human Fc fusion protein …. Kind of experiment: ELISA; EC50 of rhIL2 (reference) over EC50 of ACT5211 on IL-2Rβγ. The protocol: as §1
For experiment [12], the target named is T1, IL-2Rα in a human Fc fusion protein …. Kind of experiment: ELISA, receptor-Fc captured by anti-human IgG Fc, anti-His or anti-PEG HRP detection. How it is done: as §1
Experiment [13] has as its target T2, IL-2Rβγ-human Fc fusion protein …. Described as above. The protocol:
as §1

Experiment [14] has the same target. Kind of experiment: ELISA, receptor-Fc captured by anti-human IgG Fc on the plate, detection with anti-His or anti-PEG antibody-HRP; unit from the axis (Table 4 of the text prints 21.7). The protocol:
as §1

B1: ACT5210, IL-2 mutein Y31C + L18M + L19S (ligand)
chain: APTSSSTKKTQLQLEHLMSDLQMILNGINNCKNPKLTRMLTFKFYMPKKATELKHLQCLEEELKPLEEVLNLAQSKNFHLRPRDLISNINVIVLELKGSETTFMCEYADETATIVEFLNRWITFSQSIISTLT
notes: Not PEGylated; rhIL-2 (C125S) background; also called His-conjugated IL-2 mutein (ACT5210); not shown: His-Tag
What is called Kd is the constant that tells how readily two partners part at equilibrium. The koff is the first-order rate constant of dissociation. A higher koff goes with a short-lived complex. What is called kon is the rate constant with which the complex forms. A higher kon goes with faster complex formation. As usually defined, the EC50 is the midpoint of the concentration-response curve. B1: the Kd in [1] turned out to be 28.4 nM; in experiment [2] it was 1.04 nM; with IL2R αβγ it was 0.0113 nM. Besides, the koff in experiment [1] is 0.164 s⁻¹; in experiment [2] it was 0.000837 s⁻¹; with IL2R αβγ it was 0.000281 s⁻¹. In addition, the kon in experiment [1] came to 5.75e+06 M⁻¹ s⁻¹; in experiment [2], 807000 M⁻¹ s⁻¹; with IL2R αβγ it was 2.48e+07 M⁻¹ s⁻¹. Further, in experiment [3], the “Ratio (α/βγ) of EC50” value is 0.06. For the same molecule, the EC50 in experiment [4] stood at 2.5 ng/mL; in experiment [5] it was 39.6 ng/mL.

B2: ACT5291, IL-2 mutein Y31C + V69A + Q74P + V91K (PEG20K) (ligand)
chain: B1 chain with M18L, S19L, V69A, Q74P, V91K
modifications: maleimide-PEG 20K on Cys 31
notes: rhIL-2 (C125S) background; also called Y31C - PEG20 + V69A + Q74P + V91K; not shown: His-Tag
In experiment [6], B2 returned a Kd of 9.07 nM, a koff of 0.0032 s⁻¹ and a kon of 355000 M⁻¹ s⁻¹.

B3: IL-2 mutein Y31C - PEG20 + V69A + Q74P + I128T (ligand)
chain: B1 chain with M18L, S19L, V69A, Q74P, I128T
modifications: maleimide-PEG 20K on Cys 31
notes: not shown: His-Tag
In [6], B3 showed a Kd of 8.86 nM, a koff of 0.0035 s⁻¹ and a kon of 393000 M⁻¹ s⁻¹.

B4: ACT522S1, IL-2 mutein Y31C + N30S (PEG20K) (ligand)
chain: B1 chain with M18L, S19L, N30S
modifications: maleimide-PEG 20K on Cys 31
notes: rhIL-2 (C125S) background; also called Y31C - PEG20 + N30S; not shown: His-Tag
Turning to B4, in [6], the Kd amounted to 47.3 nM, the koff is 0.0302 s⁻¹ and the kon was found to be 639000 M⁻¹ s⁻¹.

B5: ACT5261, IL-2 mutein Y31C + L18M + L19S + V69A + Q74P (PEG20K) (ligand)
chain: B1 chain with V69A, Q74P
modifications: maleimide-PEG 20K on Cys 31
notes: rhIL-2 (C125S) background; also called Y31C - PEG20 + L18M + L19S + V69A + Q74P; not shown: His-Tag
Turning to B5, in [6], binding was characterised by a dissociation constant (Kd) of 7.38 nM, the koff was found to be 0.0043 s⁻¹ and the kon worked out at 581000 M⁻¹ s⁻¹.

B6: IL-2 mutein Y31C - PEG20 + N30G (ligand)
chain: B1 chain with M18L, S19L, N30G
modifications: maleimide-PEG 20K on Cys 31
notes: not shown: His-Tag
In experiment [6], B6 displayed a Kd of 61 nM, a koff of 0.0232 s⁻¹ and a kon of 379000 M⁻¹ s⁻¹. In experiment [7], this molecule yielded a Kd of 61 nM, an off-rate constant (koff) of 0.0232 s⁻¹ and a kon of 379000 M⁻¹ s⁻¹.

B7: IL-2 mutein Y31C - PEG20 + N30A (ligand)
chain: B1 chain with M18L, S19L, N30A
modifications: maleimide-PEG 20K on Cys 31
notes: not shown: His-Tag
In [6], B7 returned a Kd of 37.3 nM, a koff of 0.0194 s⁻¹ and a kon of 520000 M⁻¹ s⁻¹.

B8: ACT5211, IL-2 mutein Y31C + L18M + L19S (PEG20K) (ligand)
chain: B1 chain
modifications: maleimide-PEG 20K on Cys 31
notes: rhIL-2 (C125S) background; also called Y31C - PEG20 + L18M + L19S; Y31C-PEG20+L18ML19S; not shown: His-Tag
In the case of B8, in the experiment with IL2R β, the binding result is listed as “no binding (tested: not printed)”. The Kd in experiment [6] was found to be 91.5 nM; in experiment [1], 250 nM; in experiment [2] it was 15.1 nM; with IL2R αβγ it was 0.289 nM. Moreover, the koff stood at 0.0388 s⁻¹ in experiment [6], 0.139 s⁻¹ in experiment [1], 0.00147 s⁻¹ in experiment [2] and 0.000761 s⁻¹ with IL2R αβγ. Moreover, the kon turned out to be 424000 M⁻¹ s⁻¹ in [6], 555000 M⁻¹ s⁻¹ in [1], 97200 M⁻¹ s⁻¹ in experiment [2] and 2.63e+06 M⁻¹ s⁻¹ with IL2R αβγ. In addition, the “EC50 ratio rhIL2/ACT5211” value in experiment [8] is 6.8; in experiment [11], 0.1. Also, the “Ratio (α/βγ) of EC50” value in experiment [3] is 0.3. Moreover, the “ratio of the (α/βγ) EC50 ratios, rhIL2/ACT5211” value in experiment [9] was 67.7. Further, the concentration for a half-maximal effect (EC50) in experiment [10] came to 5.01 ng/mL; in [12] it was 5.1 ng/mL; in experiment [13], 21.7 ng/mL; in [14], 2.03 ng/mL.

B9: ACT5271, IL-2 mutein Y31C + V69A + Q74P + N30S (PEG20K) (ligand)
chain: B1 chain with M18L, S19L, N30S, V69A, Q74P
modifications: maleimide-PEG 20K on Cys 31
notes: rhIL-2 (C125S) background; also called Y31C - PEG20 + V69A + Q74P + N30S; not shown: His-Tag
For B9, in experiment [6], binding was characterised by a dissociation constant (Kd) of 9.14 nM, the koff is 0.0029 s⁻¹ and the kon was 318000 M⁻¹ s⁻¹.

B10: ACT5231, IL-2 mutein Y31C + V69A + Q74P (PEG20K) (ligand)
chain: B1 chain with M18L, S19L, V69A, Q74P
modifications: maleimide-PEG 20K on Cys 31
notes: rhIL-2 (C125S) background; also called Y31C - PEG20 + V69A + Q74P; not shown: His-Tag
As for B10, in experiment [6], binding was characterised by a dissociation constant (Kd) of 9.09 nM, the koff turned out to be 0.00431 s⁻¹ and the kon stood at 474000 M⁻¹ s⁻¹.

B11: ACT5281, IL-2 mutein Y31C + V69A + Q74P + N88R (PEG20K) (ligand)
chain: B1 chain with M18L, S19L, V69A, Q74P, N88R
modifications: maleimide-PEG 20K on Cys 31
notes: rhIL-2 (C125S) background; also called Y31C - PEG20 + V69A + Q74P + N88R; not shown: His-Tag
B11: in experiment [6], the affinity, expressed as Kd, was 10.6 nM; the koff is 0.0037 s⁻¹; the kon is 345000 M⁻¹ s⁻¹.
